Experimental data as given in paper PMC9482650, “Quantitative fragmentomics allow affinity mapping of interactomes” (Nature Communications, 2022).
Residue numbers refer to the chain shown, from its start.

B1: EXOC4, Q96A65 (peptide)
chain: ATKDKKITTV
B2: GYPC, P04921 (peptide)
chain: GDSSRKEYFI
B3: CLDN8, P56748 (peptide)
chain: PSVYSRSQYV
B4: MCC, P23508 (peptide)
chain: SRPHTNETSL
B5: FKBP4, Q02790 (peptide)
chain: GSQSQVETEA
B6: SIPA1, Q96FS4 (peptide)
chain: QLGSPTADLA

target: MAGI3_2, Q5TCQ9; experiment: holdup assay; set-up: key: below the threshold = too weak to quantify, mostly under pKd 3.1 to 4; details: plain residues with an end cap or a label only (N-terminal biotin on a linker: ado-ado)
Sequence (Q5TCQ9 398-503): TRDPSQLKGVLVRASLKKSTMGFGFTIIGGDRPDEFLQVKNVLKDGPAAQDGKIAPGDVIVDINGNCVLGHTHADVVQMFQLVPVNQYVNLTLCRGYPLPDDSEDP

Binder	pKd
B1	5.31
B2	4.41
B3	3.52
B4	4.09
B5	below the threshold
B6	below the threshold

target: LNX1_1, Q8TBB1; experiment: holdup assay; set-up: key: below the threshold = too weak to quantify, mostly under pKd 3.1 to 4; details: plain residues with an end cap or a label only (N-terminal biotin on a linker: ado-ado)
Sequence (Q8TBB1 261-371): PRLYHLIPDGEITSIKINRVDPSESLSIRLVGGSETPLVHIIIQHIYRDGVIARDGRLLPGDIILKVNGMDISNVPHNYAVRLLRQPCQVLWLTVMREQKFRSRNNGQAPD

Binder	pKd
B1	3.69
B2	below the threshold
B3	below the threshold
B4	below the threshold
B5	below the threshold
B6	below the threshold

target: T1, TX1BP3, O14907; experiment: holdup assay; set-up: key: below the threshold = too weak to quantify, mostly under pKd 3.1 to 4; details: plain residues with an end cap or a label only (N-terminal biotin on a linker: ado-ado)
T1 sequence (O14907 10-122, limits assumed, looked up): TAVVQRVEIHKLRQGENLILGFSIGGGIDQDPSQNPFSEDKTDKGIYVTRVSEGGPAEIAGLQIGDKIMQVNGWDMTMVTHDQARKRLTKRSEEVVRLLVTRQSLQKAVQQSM

Binder	pKd
B1	3.91
B2	below the threshold
B3	below the threshold
B4	4.12
B5	below the threshold
B6	below the threshold

target: T2, PARD3B_1, Q8TEW8; experiment: holdup assay; set-up: key: below the threshold = too weak to quantify, mostly under pKd 3.1 to 4; details: plain residues with an end cap or a label only (N-terminal biotin on a linker: ado-ado)
T2 sequence (Q8TEW8 196-299, limits assumed, looked up): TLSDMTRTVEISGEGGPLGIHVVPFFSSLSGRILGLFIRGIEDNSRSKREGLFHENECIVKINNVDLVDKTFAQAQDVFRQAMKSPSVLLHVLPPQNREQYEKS

Binder	pKd
B1	below the threshold
B2	4.39
B3	3.58
B4	3.7
B5	below the threshold
B6	below the threshold

target: T3, LIN7A, O14910; experiment: holdup assay; set-up: key: below the threshold = too weak to quantify, mostly under pKd 3.1 to 4; details: plain residues with an end cap or a label only (N-terminal biotin on a linker: ado-ado)
T3 sequence (O14910 103-200, limits assumed, looked up): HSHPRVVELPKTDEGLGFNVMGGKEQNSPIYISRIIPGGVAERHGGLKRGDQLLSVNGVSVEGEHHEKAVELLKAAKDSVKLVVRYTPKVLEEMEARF

Binder	pKd
B1	3.52
B2	below the threshold
B3	below the threshold
B4	below the threshold
B5	below the threshold
B6	below the threshold

target: FRMPD3, Q5JV73; experiment: holdup assay; set-up: key: below the threshold = too weak to quantify, mostly under pKd 3.1 to 4; details: plain residues with an end cap or a label only (N-terminal biotin on a linker: ado-ado)
Sequence (Q5JV73 12-100): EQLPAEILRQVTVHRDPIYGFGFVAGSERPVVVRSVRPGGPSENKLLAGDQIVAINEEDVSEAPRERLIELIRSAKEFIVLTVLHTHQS

Binder	pKd
B1	below the threshold
B2	below the threshold
B3	below the threshold
B4	below the threshold
B5	below the threshold
B6	below the threshold

target: GRASP, Q7Z6J2; experiment: holdup assay; set-up: key: below the threshold = too weak to quantify, mostly under pKd 3.1 to 4; details: plain residues with an end cap or a label only (N-terminal biotin on a linker: ado-ado)
Sequence (Q7Z6J2 96-193): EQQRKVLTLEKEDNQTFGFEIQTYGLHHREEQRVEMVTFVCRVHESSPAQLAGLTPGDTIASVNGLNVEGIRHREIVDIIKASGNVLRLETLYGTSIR

Binder	pKd
B1	3.95
B2	below the threshold
B3	3.51
B4	3.96
B5	3.59
B6	below the threshold

target: T4, DLG3_2, Q92796; experiment: holdup assay; set-up: key: below the threshold = too weak to quantify, mostly under pKd 3.1 to 4; details: plain residues with an end cap or a label only (N-terminal biotin on a linker: ado-ado)
T4 sequence (Q92796 221-321, limits assumed, looked up): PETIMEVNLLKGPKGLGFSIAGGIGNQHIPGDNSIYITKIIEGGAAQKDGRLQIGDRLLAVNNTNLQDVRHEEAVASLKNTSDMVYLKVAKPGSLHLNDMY

Binder	pKd
B1	5.28
B2	4.19
B3	3.74
B4	3.72
B5	4.2
B6	4.06

target: T5, APBA2_2, Q99767; experiment: holdup assay; set-up: key: below the threshold = too weak to quantify, mostly under pKd 3.1 to 4; details: plain residues with an end cap or a label only (N-terminal biotin on a linker: ado-ado)
T5 sequence (Q99767 654-744, limits assumed, looked up): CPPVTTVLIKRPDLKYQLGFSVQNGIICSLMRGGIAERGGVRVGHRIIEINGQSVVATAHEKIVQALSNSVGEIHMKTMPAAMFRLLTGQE

Binder	pKd
B1	below the threshold
B2	below the threshold
B3	below the threshold
B4	below the threshold
B5	below the threshold
B6	below the threshold

target: T6, SNTG2, Q9NY99; experiment: holdup assay; set-up: key: below the threshold = too weak to quantify, mostly under pKd 3.1 to 4; details: plain residues with an end cap or a label only (N-terminal biotin on a linker: ado-ado)
T6 sequence (Q9NY99 68-166, limits assumed, looked up): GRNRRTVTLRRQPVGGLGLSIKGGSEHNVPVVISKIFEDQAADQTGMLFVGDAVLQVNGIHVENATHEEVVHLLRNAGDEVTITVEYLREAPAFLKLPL

Binder	pKd
B1	3.92
B2	below the threshold
B3	below the threshold
B4	4.66
B5	below the threshold
B6	below the threshold

target: T7, LIN7C, Q9NUP9; experiment: holdup assay; set-up: key: below the threshold = too weak to quantify, mostly under pKd 3.1 to 4; details: plain residues with an end cap or a label only (N-terminal biotin on a linker: ado-ado)
T7 sequence (Q9NUP9 88-185, limits assumed, looked up): T3 sequence (O14910 103-200, limits assumed, looked up) with D13E, V20I, V40I, E42D, K77Q, D78G, S79K, A96S

Binder	pKd
B1	below the threshold
B2	below the threshold
B3	below the threshold
B4	3.65
B5	below the threshold
B6	3.69

target: Inadl_9, Q8NI35; experiment: holdup assay; set-up: key: below the threshold = too weak to quantify, mostly under pKd 3.1 to 4; details: plain residues with an end cap or a label only (N-terminal biotin on a linker: ado-ado)
Sequence (Q8NI35 1530-1615): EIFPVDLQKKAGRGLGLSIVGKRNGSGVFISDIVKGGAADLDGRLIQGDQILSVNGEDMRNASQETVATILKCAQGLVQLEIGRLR

Binder	pKd
B1	3.63
B2	3.51
B3	4.36
B4	below the threshold
B5	below the threshold
B6	below the threshold

target: GRIP2_7, Q9C0E4; experiment: holdup assay; set-up: key: below the threshold = too weak to quantify, mostly under pKd 3.1 to 4; details: plain residues with an end cap or a label only (N-terminal biotin on a linker: ado-ado)
Sequence (Q9C0E4 934-1023): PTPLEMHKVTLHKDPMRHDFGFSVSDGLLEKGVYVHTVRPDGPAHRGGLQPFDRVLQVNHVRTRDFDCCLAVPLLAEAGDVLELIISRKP

Binder	pKd
B1	3.52
B2	5.33
B3	3.51
B4	below the threshold
B5	below the threshold
B6	below the threshold

target: LNX1_2, Q8TBB1; experiment: holdup assay; set-up: key: below the threshold = too weak to quantify, mostly under pKd 3.1 to 4; details: plain residues with an end cap or a label only (N-terminal biotin on a linker: ado-ado)
Sequence (Q8TBB1 371-470): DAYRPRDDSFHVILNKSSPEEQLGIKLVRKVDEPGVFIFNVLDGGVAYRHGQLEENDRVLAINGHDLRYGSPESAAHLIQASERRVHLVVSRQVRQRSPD

Binder	pKd
B1	4.1
B2	below the threshold
B3	3.7
B4	below the threshold
B5	below the threshold
B6	below the threshold

target: T8, APBA2_1, Q99767; experiment: holdup assay; set-up: key: below the threshold = too weak to quantify, mostly under pKd 3.1 to 4; details: plain residues with an end cap or a label only (N-terminal biotin on a linker: ado-ado)
T8 sequence (Q99767 563-664, limits assumed, looked up): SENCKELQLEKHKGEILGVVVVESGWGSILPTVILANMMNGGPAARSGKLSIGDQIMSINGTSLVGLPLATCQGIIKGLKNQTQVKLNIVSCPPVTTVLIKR

Binder	pKd
B1	below the threshold
B2	3.55
B3	below the threshold
B4	below the threshold
B5	below the threshold
B6	below the threshold

target: T9, APBA1_1, Q02410; experiment: holdup assay; set-up: key: below the threshold = too weak to quantify, mostly under pKd 3.1 to 4; details: plain residues with an end cap or a label only (N-terminal biotin on a linker: ado-ado)
T9 sequence (Q02410 651-752, limits assumed, looked up): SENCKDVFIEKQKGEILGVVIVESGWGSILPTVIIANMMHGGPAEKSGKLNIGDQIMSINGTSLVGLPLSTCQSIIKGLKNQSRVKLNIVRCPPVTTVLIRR

Binder	pKd
B1	below the threshold
B2	3.65
B3	below the threshold
B4	below the threshold
B5	below the threshold
B6	below the threshold

target: T10, DLG3_1, Q92796; experiment: holdup assay; set-up: key: below the threshold = too weak to quantify, mostly under pKd 3.1 to 4; details: plain residues with an end cap or a label only (N-terminal biotin on a linker: ado-ado)
T10 sequence (Q92796 125-227, limits assumed, looked up): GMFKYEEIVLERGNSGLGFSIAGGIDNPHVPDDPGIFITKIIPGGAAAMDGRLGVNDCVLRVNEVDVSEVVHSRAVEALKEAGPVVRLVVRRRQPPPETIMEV

Binder	pKd
B1	4.59
B2	below the threshold
B3	below the threshold
B4	below the threshold
B5	below the threshold
B6	below the threshold

target: LIMK2, P53671; experiment: holdup assay; set-up: key: below the threshold = too weak to quantify, mostly under pKd 3.1 to 4; details: plain residues with an end cap or a label only (N-terminal biotin on a linker: ado-ado)
Sequence (P53671 143-248): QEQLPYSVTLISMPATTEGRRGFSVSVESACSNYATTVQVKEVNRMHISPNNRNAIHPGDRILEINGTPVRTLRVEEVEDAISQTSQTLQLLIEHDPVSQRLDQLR

Binder	pKd
B1	below the threshold
B2	below the threshold
B3	below the threshold
B4	below the threshold
B5	below the threshold
B6	below the threshold

target: MAGI2_6, Q86UL8; experiment: holdup assay; set-up: key: below the threshold = too weak to quantify, mostly under pKd 3.1 to 4; details: plain residues with an end cap or a label only (N-terminal biotin on a linker: ado-ado)
Sequence (Q86UL8 1141-1229): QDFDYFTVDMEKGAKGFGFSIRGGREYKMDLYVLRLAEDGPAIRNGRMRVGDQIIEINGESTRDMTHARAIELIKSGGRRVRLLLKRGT

Binder	pKd
B1	3.72
B2	below the threshold
B3	below the threshold
B4	3.8
B5	below the threshold
B6	below the threshold

target: HTRA2, O43464; experiment: holdup assay; set-up: key: below the threshold = too weak to quantify, mostly under pKd 3.1 to 4; details: plain residues with an end cap or a label only (N-terminal biotin on a linker: ado-ado)
Sequence (O43464 355-458): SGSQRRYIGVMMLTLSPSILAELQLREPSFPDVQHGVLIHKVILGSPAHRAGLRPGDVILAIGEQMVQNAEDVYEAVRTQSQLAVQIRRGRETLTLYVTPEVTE

Binder	pKd
B1	below the threshold
B2	4.1
B3	4.46
B4	below the threshold
B5	below the threshold
B6	below the threshold

target: DLG1_3, Q12959; experiment: holdup assay; set-up: key: below the threshold = too weak to quantify, mostly under pKd 3.1 to 4; details: plain residues with an end cap or a label only (N-terminal biotin on a linker: ado-ado)
Sequence (Q12959 457-571): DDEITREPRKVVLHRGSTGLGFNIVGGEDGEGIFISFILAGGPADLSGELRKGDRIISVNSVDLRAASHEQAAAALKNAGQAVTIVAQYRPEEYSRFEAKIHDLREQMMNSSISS

Binder	pKd
B1	4.08
B2	below the threshold
B3	below the threshold
B4	3.73
B5	below the threshold
B6	below the threshold

target: Inadl_10, Q8NI35; experiment: holdup assay; set-up: key: below the threshold = too weak to quantify, mostly under pKd 3.1 to 4; details: plain residues with an end cap or a label only (N-terminal biotin on a linker: ado-ado)
Sequence (Q8NI35 1673-1763): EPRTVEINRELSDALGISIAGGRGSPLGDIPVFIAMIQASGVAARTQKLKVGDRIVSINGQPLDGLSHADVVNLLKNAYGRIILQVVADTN

Binder	pKd
B1	below the threshold
B2	below the threshold
B3	below the threshold
B4	below the threshold
B5	below the threshold
B6	below the threshold

target: T11, RAPGEF6, Q8TEU7; experiment: holdup assay; set-up: key: below the threshold = too weak to quantify, mostly under pKd 3.1 to 4; details: plain residues with an end cap or a label only (N-terminal biotin on a linker: ado-ado)
T11 sequence (Q8TEU7 525-625, limits assumed, looked up): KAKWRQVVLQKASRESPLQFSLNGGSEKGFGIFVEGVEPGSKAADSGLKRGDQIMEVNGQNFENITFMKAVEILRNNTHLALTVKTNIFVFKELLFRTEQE

Binder	pKd
B1	below the threshold
B2	below the threshold
B3	below the threshold
B4	below the threshold
B5	below the threshold
B6	below the threshold

target: T12, PCLO, Q9Y6V0; experiment: holdup assay; set-up: key: below the threshold = too weak to quantify, mostly under pKd 3.1 to 4; details: plain residues with an end cap or a label only (N-terminal biotin on a linker: ado-ado)
T12 sequence (Q9Y6V0 4491-4600, limits assumed, looked up): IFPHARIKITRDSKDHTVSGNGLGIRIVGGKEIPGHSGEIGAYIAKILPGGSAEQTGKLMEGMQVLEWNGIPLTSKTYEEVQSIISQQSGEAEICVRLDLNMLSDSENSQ

Binder	pKd
B1	below the threshold
B2	below the threshold
B3	below the threshold
B4	below the threshold
B5	below the threshold
B6	below the threshold

target: ARHGEF12, Q9NZN5-2; experiment: holdup assay; set-up: key: below the threshold = too weak to quantify, mostly under pKd 3.1 to 4; details: plain residues with an end cap or a label only (N-terminal biotin on a linker: ado-ado)
Sequence (Q9NZN5 other isoform, or with tags, fused parts or gaps): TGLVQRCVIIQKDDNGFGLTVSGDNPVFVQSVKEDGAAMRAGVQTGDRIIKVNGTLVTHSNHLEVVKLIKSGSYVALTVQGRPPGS

Binder	pKd
B1	4.87
B2	below the threshold
B3	4.19
B4	4.68
B5	below the threshold
B6	below the threshold
